From publication PMC3725402, “Evolution of the key alkaloid enzyme putrescine N-methyltransferase from spermidine synthase” (Frontiers in Plant Science, 2013)

System: NCCCCN
Assay: purified protein
Conditions: PMT activity, co-substrate SAM, 20 mM HEPES pH 8.0, 37°C, 2 mM DTT, 1 mM ascorbic acid

“DsPMT (putrescine N-methyltransferase) (Datura stramonium; H108L)” was tested, and the Km was 3130 ± 732.59 µM.
For “DsPMT (putrescine N-methyltransferase) (Datura stramonium)”, the Km was 190 ± 27.67 µM.
